How the values were obtained:
[1] = target: Dat (ACIAD1210) (Acinetobacter baylyi, UniProt Q6FCX2); conditions: 10 mM DAP; 5 mM 2-oxoglutarate; 200 μM PLP; 200 μM NAD+; pH 9.0; 25 °C
[2] = target: AstC (ACIAD1284) (Acinetobacter baylyi, UniProt Q6FCQ2); conditions: 10 mM DAP; 5 mM 2-oxoglutarate; 200 μM PLP; 200 μM NAD+; pH 9.0; 25 °C
[3] = substrate: NCCC=O; assay: purified protein; conditions: pH 9.0, 25 °C
[4] = substrate: NC(=O)c1ccc[n+]([C@@H]2O[C@H](COP(=O)(O)OP(=O)(O)OC[C@H]3O[C@@H](n4cnc5c(N)ncnc54)[C@H](O)[C@@H]3O)[C@@H](O)[C@H]2O)c1; assay: purified protein; conditions: pH 9.0, 25 °C, varied: cofactor
[5] = substrate: NC(=O)c1ccc[n+]([C@@H]2O[C@H](COP(=O)(O)OP(=O)(O)OC[C@H]3O[C@@H](n4cnc5c(N)ncnc54)[C@H](OP(=O)(O)O)[C@@H]3O)[C@@H](O)[C@H]2O)c1; assay: purified protein; conditions: pH 9.0, 25 °C, varied: cofactor
[6] = substrate: O=C(O)CCC(=O)C(=O)O; assay: purified protein; conditions: 4 mM GABA, 200 μM PLP, 5 mM NAD+, pH 9.0, 25 °C
[7] = substrate: NCCCN; assay: purified protein; conditions: 200 μM PLP
[8] = substrate: NCCCC(=O)O; assay: purified protein; conditions: 500 μM 2-oxoglutarate, 200 μM PLP, 5 mM NAD+, pH 9.0, 25 °C
[9] = substrate: NCC[C@H](N)C(=O)O; assay: purified protein; format: biochemical, Acinetobacter baylyi; conditions: 100 mM Tris-HCl pH 8.5, 200 μM PLP, 2.5 mM CaCl2, 25 °C
[10] = 500 μM 2-oxoglutarate, 5 mM NAD+, pH 9.0, 25 °C
[11] = 1 mM NAD+, BetB, 2.5 mM CaCl2, pH 9.0, 25 °C

AstC (ACIAD1284), sequence (Q6FCQ2 1-403): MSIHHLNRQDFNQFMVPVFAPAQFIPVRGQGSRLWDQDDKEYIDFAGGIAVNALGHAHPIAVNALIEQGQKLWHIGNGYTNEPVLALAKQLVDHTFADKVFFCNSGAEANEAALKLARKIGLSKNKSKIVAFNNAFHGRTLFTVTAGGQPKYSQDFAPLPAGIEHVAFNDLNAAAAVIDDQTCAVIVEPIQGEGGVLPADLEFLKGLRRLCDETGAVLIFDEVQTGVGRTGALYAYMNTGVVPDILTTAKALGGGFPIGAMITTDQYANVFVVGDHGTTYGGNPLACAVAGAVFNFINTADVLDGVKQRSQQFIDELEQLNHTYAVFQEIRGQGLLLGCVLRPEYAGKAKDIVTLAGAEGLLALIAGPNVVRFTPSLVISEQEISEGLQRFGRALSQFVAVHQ
Dat (ACIAD1210), sequence (Q6FCX2 1-456): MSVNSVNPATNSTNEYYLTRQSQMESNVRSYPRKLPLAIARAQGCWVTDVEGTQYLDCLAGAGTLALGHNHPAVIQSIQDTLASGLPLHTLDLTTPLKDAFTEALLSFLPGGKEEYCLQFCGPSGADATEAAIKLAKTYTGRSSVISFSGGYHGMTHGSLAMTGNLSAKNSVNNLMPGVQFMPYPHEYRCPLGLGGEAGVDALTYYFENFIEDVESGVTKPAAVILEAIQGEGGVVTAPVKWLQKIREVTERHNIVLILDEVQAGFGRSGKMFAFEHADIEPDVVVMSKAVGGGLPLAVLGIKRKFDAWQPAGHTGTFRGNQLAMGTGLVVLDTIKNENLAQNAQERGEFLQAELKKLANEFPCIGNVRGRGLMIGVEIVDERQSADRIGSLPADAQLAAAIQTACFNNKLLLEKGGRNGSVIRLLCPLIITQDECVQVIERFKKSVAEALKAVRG

## NCCCN [DAP]
[1]
  BetB-coupled assay, NADH at 340 nm (aminotransferase): activity of AstC and Dat was too low to determine their kinetic parameters
[2]
  BetB-coupled assay, NADH at 340 nm (aminotransferase): activity of AstC and Dat was too low to determine their kinetic parameters

B1: AcoD (ACIAD2018) (Acinetobacter baylyi ADP1) (protein)
chain: MRYIDPNQPGSKVQFKAQYENFIGGQWVPPVKGEYFGNSSPVDGKVFTQIPRSSVEDIELALDAAHKAKADWNKASPTVRSNVLLKIADRLEENLELLAVAETWENGKPIRETLAADIPLAIDHFRYFAGCIRAQEGGISEIDEDTIAYHFHEPLGVVGQIIPWNFPILMAAWKLAPALAAGNCIVLKPAEQTPSSILVLAELIQDLLPPGVLNIVNGYGAEVGRPLATNPRISKIAFTGSTKVGQMIMQYATENIIPVTLELGGKSPNIFFEDILDKEDDYLEKTLEGFAMFALNQGEVCTCPSRALVQESIADKFLEMAVERVKRIKTGHPLDTETMIGAQASKQQFDKILGCIDTGRNEGAQLLTGGDARHDVDGGFYIEPTIFKGNNSMKIFQEEIFGPVLSVTTFKDFDDAMRIANDTIYGLGAGVWSRSAHTSYRAGRAIEAGRVWTNCYHLYPAHAAFGGYKQSGIGRENHRMMLDHYQQTKNLLVSYSTKPMGFF
[3]; 2 mM NAD+
  Km: 3559 ± 755 µM
  kcat: 1.55 ± 0.35 s⁻¹
  kcat/Km: 440 M⁻¹ s⁻¹
[4]; 20 mM 3AP
  Km: 124 ± 49 µM
  kcat/Km: 13000 M⁻¹ s⁻¹

B2: AdhA (ACIAD3339) (Acinetobacter baylyi ADP1) (protein)
chain: MGSLMKAAVVTAFNQPLEIKDVEIPKVTSGKVLVKMIATGVCHTDLHAMHGDWPIKPSLPFIPGHEGVGEVVEIGEGITHLKIGDTVGVPWLYSACGHCDHCYAGWETLCKQQQNSGYSVNGSFAEYCLADGEYVGVIPEGVDLLEIAPILCAGVTVYKGLKMTEAKTGDWVAISGIGGLGHVAVQYAKTMGFNVVAIDVDDSKLELAKQLGADVGINALKVDVKEEVLKATGEGCHGVLVTAVSPKAFEQAVSVVRRGGTMVLNGLPPGKFDLSIFDMVLDGITVRGSIVGTRLDLKEALDIAARGKVKAHISVEPLENINDIFERMEQGKIDGRIVIDLKL
[3]; 9 mM NAD+
  Km: 141 ± 28 µM
[4]; 2 mM 3AP
  Km: 1803 ± 305 µM
  kcat/Km: 520 M⁻¹ s⁻¹

B3: GabD-like (ACIAD0960) (Acinetobacter baylyi ADP1) (protein)
chain: MAYATVNPYTGETLKEFPFATEQEVKAAIDAGYTAFTTWKDSSFATRAEVLNKAAKILRDKTDYYAKFLTLEMGKLFKEAQGEVEICAQIFEYYAKHAEELLAPTKLSTANKEINATIYYEPQGIVMAVEPWNFPFYQIARILSAQLAAGNTVILKHASIVPQSANAFEQLLLDAGLPQGAFKNLYMQHEHIPLVLNDHRVCGVALTGSEGAGAEVAAHAGKALKKSTLELGGSDAFIVLKDADLEKTAQLAVSGRHSNAGQVCTASKRFIVVDEVYDQFVELYKQGVAKLKAGDPMDPDTTLAPLCSQDAADQLKKQVEKAKAAGATVEAIGAPVPEQGAFFQPLLMTDIQEDNEARYWEFFGPVTQLYRAKDEADAIRIANDSPFGLGGSVYTADHARGVEVAKQIHTGMVYINHPTTSQADLPFGGVGRSGYGRELIDLGLKEFVNHKLIAITDIDAKL
[5]; 15 mM 3AP
  Km: 3718 ± 1138 µM
  kcat/Km: 1000 M⁻¹ s⁻¹
[4]; 15 mM 3AP
  Km: 4507 ± 363 µM
  kcat: 1.68 ± 0.04 s⁻¹
  kcat/Km: 370 M⁻¹ s⁻¹

B4: BetB (ACIAD1009) (Acinetobacter baylyi ADP1) (protein)
chain: MSDVKLHRLYIHGQYTDATSGKTFDSINPATGEVIATIQQASQTDIEAAVKSAAEGQKVWAAKTAVERSRILRRAVDILRERNDELAQLETLDTGKAFSETSTVDIVTGADVLEYYAGLATAIQGEQVPLRESSFFYTRREPLGVVAGIGAWNYPIQIALWKSAPALAAGNAMIFKPSEVTPLTAFKLAEIYSEAGLPAGVFNVVQGAGREIGQWLTEHAVIEKISFTGGVETGKKVMASAAGSTLKEVTMELGGKSPLIICEDANLDRAADIAVMANFFSSGQVCTNGTRVFIPQRLKAAFEQAVVERVKRIRMGDPQHTDTNFGPLVSFPHMEKVLSYIESGKQQGAKVLIGGERATTGLLAQGAYVQPTVFTDCHDDMKIVQEEIFGPVMSILTYDTIEEAIERANNTNFGLAAGVVTQNISQAHQIIHQLEAGICWINTWGESPAEMPVGGYKESGVGRENGISTLNHYTRTKSIQVELGDYQSVF
[5]; 2.5 mM 3AP
  Km: 339 ± 67 µM
  kcat: 2.43 ± 0.12 s⁻¹
  kcat/Km: 7200 M⁻¹ s⁻¹
[3]; 2 mM NAD+
  Km: 82 ± 17 µM
  kcat: 1.48 ± 0.16 s⁻¹
  kcat/Km: 18000 M⁻¹ s⁻¹
[4]; 2.5 mM 3AP
  Km: 20 ± 4 µM
  kcat/Km: 74000 M⁻¹ s⁻¹

B5: GabT (ACIAD3446) (Acinetobacter baylyi ADP1) (protein)
chain: MDTKHSALNQRKQQATPRGVGVMCQWYADKAENATIWDAEGNTYIDFAGGIAVLNTGHRHPKVLAAVKAQLERFTHTAYQVTPYESYVALAERINELAPIAGPAKTTFFTTGAEAVENAVKIARCYTGRQGIITFGNGFHGRSFMTMAMTGKTAPYKRDFGLMPGGVFHARYPVESRGISVDDALESIENIFSEDVAPHDVAAIVLEPVQGEGGFNVVPADFLKRLRALCDKHGILLVADEVQTGFARTGKLYAMDHYETKADLITMAKSLGGGFPISGVVGRAEVMDAPNPGGLGGTYAGNPVAVAAAHAVIDAIQEEKLCERANELGAELVHVLKGLQQSTDQVITDIRALGSMVAAEFETAEQAKAVQNYAMQNGLLLLTCGKYGNVIRFLYPLTIPVEQFRSGLDILKQGVASLATDHTTQAIG
[6]
  Km: 58 ± 7 µM
  kcat/Km: 8300 M⁻¹ s⁻¹
[7]; [10]
  Km: 4356 ± 1014 µM
  kcat: 0.22 s⁻¹
  kcat/Km: 51 M⁻¹ s⁻¹
[8]
  Km: 399 ± 40 µM
  kcat: 0.48 ± 0.021 s⁻¹
  kcat/Km: 1200 M⁻¹ s⁻¹

B6: Ddc (ACIAD1211) (Acinetobacter baylyi ADP1) (protein)
chain: MVDFAEHRKALLCNDAASIAEYQSAMDEAVKAVAAWLQNDKMYTGGSIKELRSAIAFNPSKEGLGLHQSLGRMVELFLNKSLKVHHPYSLAHLHCPTMVTSQIAEVLINATNQSMDSWDQSPAGSLMEVQLIDWLRQKVGYGVGQAGVFTSGGTQSNLMGVLLARDWAIAKNFTDENGQPWSVQRDGIPAEAMRNIKVICSENAHFSVQKNMAMMGMGFQSVVTVPVNENAQMDVDALEKTMSHLQSEGKIVACVVATAGTTDAGAIDPLKKIREITTKYGAWMHIDAAWGGALILSNDYRDMLDGIELSDSITLDFHKHYFQSISCGAFLLKDEANYRFMHYEAEYLNSAYDEEHGVPNLVSKSLQTTRRFDALKLWMTVEALGEELYGSMIDHGVKLTREVADYIKATEGLELLVEPQFASVLFRVVPDGYPVELIDTLNQNVADELFARGDANIGVTKVGAVQSLKMTTLSPVATLENVKGLLAMVLAESDRIKDSIAAGTYVPAID
[7]; [11]
  Km: 710 ± 113 µM
  kcat: 0.009 s⁻¹
  kcat/Km: 13 M⁻¹ s⁻¹
[9]
  Km: 1585 ± 257 µM
  kcat: 12.1 ± 1.1 s⁻¹
  kcat/Km: 7600 M⁻¹ s⁻¹

From article PMC9213253 (The Journal of Biological Chemistry, 2022)
